B1: TPR t1 (parent)
chain: GACCAAUCUGCCCUCAGAGCUCGAGAACAUCUUCGGAUGCAGAGGAGGCAGGCUUCGGUGGCGCGAUAGCGCCAACGUCCUCAACCUCCAAUGCAUCCCACCACAUGAUGAUGCCUGAAGAGCCUUGGUUUUUUG

Variants of: B1
Assay: polymerase ribozyme fitness, log enrichment relative to wild type (log ratio); higher = more active; in vitro selection for triplet polymerase activity
Method in brief: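 PCR was used to build mutant libraries for each subunit of a heterodimeric triplet polymerase ribozyme, which were then transcribed. A single in vitro selection round, in triplicate, used a frozen incubation at −7 °C and recovered extended constructs by gel excision, streptavidin beads and RT-PCR. Fitness is the logarithm of genotype enrichment relative to wild-type enrichment, averaged over replicates with inverse-variance weights. The logarithm is base 2, and after Illumina sequencing only genotypes with ≥10 input reads and ≥1 read per output were kept.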

Variant | polymerase ribozyme fitness (log ratio)
GACCAAUCUGCUCUCAGAGCUCGAGAACAUCUUCGGAUGCAGAGGAGGCAGGCUUCGGUGGCGCGAUAGCGCCAACGUCCUCAACCUCCAAUGCAUCUCACCACAUGAUGAUGCCUGAAGAGCCUUGGUUUUUUG [C12U C98U] | -0.736
GACCAAUCUGACCUCAGAGCUCGAGAACAUCUUCGGAUGCAGAGGAGGCAGGCUUCGGUGGCGCGAUAGCGCCAACGUCCUCAACCUCCAAUGCAUCCCCCCACAUGAUGAUGCCUGAAGAGCCUUGGUUUUUUG [C11A A100C] | -2.81
GACCAAUCUGCCCUCAGAGCUCGAGAACAUCUUCGGAUGCAGAGGAGGCAGGCUUCGGUGGCGCGAUAGCGCCAACGUCCUCAACCUCCAAUGCAUCCCACCACCUGAAGAUGCCUGAAGAGCCUUGGUUUUCUG [A105C U109A U133C] | -5.16
GACCAAUCUGCCCUCAGAGCUCGAGAACAUCUUCGGAUGCAGAGGAGGCAGGCAUCGGUGGCGCGAUAGCGCCAACGUCCUCAACCUCCAAUGCAUCCCACCACAUGAUGAUGCCUGAAGAGCAUUGGUUUUUUG [U54A C124A] | -0.2
GACCAAUCUGCCCUCAGAGCUGGAGAACAUCUUCGGAUGCAGAGGAGGCAGGCUUCGGUGGCGCGAUAGUGCCAACGUCCUCAACCUCCAAUGCAUCCCACCACAUGAUGAUGCCUGAAGAGCCUUGGUUUUUUG [C22G C70U] | -3.87
GACGAAUCUGCCCUCAGAGCUCGAGAACAUCUUCGGAUGGAGAGGAGGCAGGCUUCGGUGGCGCGAUAGCGCCAACGUCCUCAACCUCCAAUGCAUCCCACCACAUGAUGAUGCUUGAAGAGCCUUGGUUUUUUG [C4G C40G C115U] | -3.42
GACCAAUCUGCCGUCAGAGCUCGAGAACAUCUUCGGUUGCAGAGGAGAUAGGCUUCGGUGGCGCGAUAGCGCCAACGUCCUCAAUCUCCAAUCCAUCCCACCACAUGAUGAUGCCUGAAUAGCCUUGGUUUUUUG [C13G A37U G48A C49U C85U G93C G120U] | -1.53
GACCAAUCUGCCCUCAGAGCUCGAGAACAUCUUCGGAUGCAGAGGAGGCACGCUUCGGUGUCGCGAUAGCGCCCACGUCCUCAACCUCCAAUGCAUCCCACCACAUGAUGAUGACUAAAGAGCCUUGGUUUUUUG [G51C G61U A74C C114A G117A] | -7.43
GACCAAUCUGCCCUAAGAGCUCGAGAACAUCUUCGGAUGUAGAGGAGGCAGGCUUCGGUGGCGCGAUAGCGCCAACGUCCUCAACCCCCAAUCCAUCCCACCACAUGAUGAUGCCUGAAGAGCCUUGGUUUUUUG [C15A C40U U87C G93C] | -3.02
GAACAAUCUGCCCUCAGAGCUCGAGAACAUCUUCGCAUGCAGAGGAGGCAGGCUUCGGUGGCACGAUAGCGCCAACGUCCUCAACCUCCAAUGCAUCCCACCACAUGAUGAUGCCUGAAGAGCCUUGGUCUUUUG [C3A G36C G63A U130C] | -2.1
GACCAAUCUGGCCUCAGAGCUCGAGAACAUCUUCGGAUGCAGAGGAGGCAGGCUUCGGUGGCGCGAUAGCGACAACGUUCUCAACCUCCGAUGCAUCCCAGCACAUGAUGAUGCCUGAAGCGCCUUGGUUAUUUG [C11G C72A C79U A90G C101G A121C U131A] | 0.276
GACCAAUCUGCCCUCAGAGCUCGAGGACAUCUUCGGAUGCAGAGGAGGUAGGCUUCGGUGGCACGAUAGCGCCAACGUCCUCACCCUCCAAUGCAUCCCACCACAUGAUGAUGCCUGAAGAGCCUUGGUUUUUUG [A26G C49U G63A A84C] | -4.24
GACCAAUCUACCCUCAGAGCUCGAGAACAUCUUCGGAUGCAGAGGAGGCAUGCUUCGGUGGCGCGAUAGCUCCAACGUCCUCAACCUCCAAUGCAUCCCAACACAUGAUGAUGCCUGAAGAGCCUUGGUUUUUUG [G10A G51U G71U C101A] | -6.07
GACCAAUCUGUCCUCAGAGCUCGAGAACAUCUUAGGAUGCAGAGGAGGCAGGCUUCGGUGGCGCGAUAGCGCCAACGUCCUCAACCACCAAUGCAUCCCACCACAUGAUGAUGCCUGAAGAGCCUUGGUUUUUUG [C11U C34A U87A] | -3.12
GACCAAUCUGCCCUCAGAGCUCGAGAACAUCUUCGGAUGUAGAGGAGGCAGGCUUCGGUGUCGCGAUAGCGCCAACGUCCUCAACGUCCAAUGCAUCCCACCACAUGAUGAUGCCUGAAGAGCCUUGGUUUUUUG [C40U G61U C86G] | -2.87
GACCAAUCUGCCCUCCGAGCUCGAGAACAUCUUCGGAUGCAGAGGAGGCAGGCUUAGGUGGCGCGAUAGCGCCAACGUCCUCAACCUCCAAUGCAUGCCACCACAUGAUGAUGCCUGAAGAGCCUUGGUUUUUUG [A16C C56A C97G] | -5.42
GACCAAUCUGCCCUCAGAGCUCGAGAACAUCUUCGGAUGCAGAGGAGGCACGCUUCGGUGGCGCGAUAGCGCCAACGUCCUCAACCUCCAAUGCAUCCCACCACAUGAUGAUGCCUGAACAGCCUUGGUUUUUUG [G51C G120C] | -2.56
GACCCAUCUGCCUUCAGAGCUCGAGAACAUCUUCGGAUGCAGAGGAGGCAGGCUUCGGUGGCGCGAUAGCGCCAACGUCCUCAACCUACAAUGCAUCCCACCACAUGAUGAUGCCUGAAGAGUCUUGGUUUUUUG [A5C C13U C88A C123U] | 1.09
GACCAAUCCGCCCUCAGAGCUCGAGAACAUCUUCGGAUUCAGAGGAGACAGGGUUCGGUGGCGCGAUAGCGCCAACGUCCUCAACCUCCAGUGCAUCCCACCACAUGAUGAUGCCUGAAGAGCCUUGGUUUUUUG [U9C G39U G48A C53G A91G] | -2.06
GACCAAUCUGCCCUCAGAGCUCGAGAACAUCUUCGGAUGAAGAGGAGGCAGGCUUCGGUGGCGCGAUAGCGCCAACGUCCUCAACCUCCAAUGCAUCCCACCACAUGAUGAUGCCUGAAGAGCCUUGGUUUUUUG [C40A] | -1.28
GACCAAUCUGCCCUCAGAGCUCGAAAACAUCUUCGGAUGCAGAGGAGGCAGGCUUCGGUCGCGCGAUAGCGCCAACGUCCUCAACCUCCAAUGCAUCCCACCACAUGAUGAUGCCUGAAGAGCCUUGGUUUUUUG [G25A G60C] | -7.2
